Patent publication EP1789452B1 (Janssen Pharmaceutica NV, dated 2006)
Ends that are not written are not given here.

T1: human GPCR135 (human, UniProt Q9NSD7 1-469)
T1 sequence: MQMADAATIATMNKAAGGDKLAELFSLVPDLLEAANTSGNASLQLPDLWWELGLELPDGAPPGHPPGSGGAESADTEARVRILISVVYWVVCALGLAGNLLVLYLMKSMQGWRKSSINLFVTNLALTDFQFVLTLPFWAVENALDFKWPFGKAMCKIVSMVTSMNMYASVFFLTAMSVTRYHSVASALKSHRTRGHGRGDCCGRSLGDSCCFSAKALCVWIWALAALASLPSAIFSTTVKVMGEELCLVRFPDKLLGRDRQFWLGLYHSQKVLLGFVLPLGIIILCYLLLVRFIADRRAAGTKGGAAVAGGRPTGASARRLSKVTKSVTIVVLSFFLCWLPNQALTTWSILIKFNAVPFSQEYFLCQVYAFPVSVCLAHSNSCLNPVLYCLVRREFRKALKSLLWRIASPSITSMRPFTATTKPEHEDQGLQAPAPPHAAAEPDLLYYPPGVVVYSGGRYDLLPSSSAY

T2: human LGR7 (human, UniProt Q9HBX9 1-757)
T2 sequence (looked up): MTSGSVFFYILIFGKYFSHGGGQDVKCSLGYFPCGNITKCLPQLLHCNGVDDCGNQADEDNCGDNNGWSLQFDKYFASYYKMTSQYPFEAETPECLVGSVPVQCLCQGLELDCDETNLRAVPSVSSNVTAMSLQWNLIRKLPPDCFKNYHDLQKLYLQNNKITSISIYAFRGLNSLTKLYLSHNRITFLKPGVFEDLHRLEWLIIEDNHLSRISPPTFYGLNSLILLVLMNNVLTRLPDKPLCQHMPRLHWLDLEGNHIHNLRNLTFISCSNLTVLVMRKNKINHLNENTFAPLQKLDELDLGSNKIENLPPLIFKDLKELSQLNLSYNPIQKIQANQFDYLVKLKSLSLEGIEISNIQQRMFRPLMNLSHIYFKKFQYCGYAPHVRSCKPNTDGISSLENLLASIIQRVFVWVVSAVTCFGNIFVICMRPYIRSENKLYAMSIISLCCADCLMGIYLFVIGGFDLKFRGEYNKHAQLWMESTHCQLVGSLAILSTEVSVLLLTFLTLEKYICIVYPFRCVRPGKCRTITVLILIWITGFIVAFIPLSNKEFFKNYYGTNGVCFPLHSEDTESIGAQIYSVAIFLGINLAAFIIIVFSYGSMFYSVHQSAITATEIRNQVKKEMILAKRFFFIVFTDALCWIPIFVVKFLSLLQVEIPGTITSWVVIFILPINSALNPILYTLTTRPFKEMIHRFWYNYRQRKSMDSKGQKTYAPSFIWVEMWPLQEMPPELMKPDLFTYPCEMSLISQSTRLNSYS

T3: rat LGR7 (rat, UniProt Q6R6I6 1-758)
T3 construct: whole, on cells; Membranes of COS-7 cells transiently expressing rat LGR7; also called rat recombinant LGR7
T3 sequence (looked up): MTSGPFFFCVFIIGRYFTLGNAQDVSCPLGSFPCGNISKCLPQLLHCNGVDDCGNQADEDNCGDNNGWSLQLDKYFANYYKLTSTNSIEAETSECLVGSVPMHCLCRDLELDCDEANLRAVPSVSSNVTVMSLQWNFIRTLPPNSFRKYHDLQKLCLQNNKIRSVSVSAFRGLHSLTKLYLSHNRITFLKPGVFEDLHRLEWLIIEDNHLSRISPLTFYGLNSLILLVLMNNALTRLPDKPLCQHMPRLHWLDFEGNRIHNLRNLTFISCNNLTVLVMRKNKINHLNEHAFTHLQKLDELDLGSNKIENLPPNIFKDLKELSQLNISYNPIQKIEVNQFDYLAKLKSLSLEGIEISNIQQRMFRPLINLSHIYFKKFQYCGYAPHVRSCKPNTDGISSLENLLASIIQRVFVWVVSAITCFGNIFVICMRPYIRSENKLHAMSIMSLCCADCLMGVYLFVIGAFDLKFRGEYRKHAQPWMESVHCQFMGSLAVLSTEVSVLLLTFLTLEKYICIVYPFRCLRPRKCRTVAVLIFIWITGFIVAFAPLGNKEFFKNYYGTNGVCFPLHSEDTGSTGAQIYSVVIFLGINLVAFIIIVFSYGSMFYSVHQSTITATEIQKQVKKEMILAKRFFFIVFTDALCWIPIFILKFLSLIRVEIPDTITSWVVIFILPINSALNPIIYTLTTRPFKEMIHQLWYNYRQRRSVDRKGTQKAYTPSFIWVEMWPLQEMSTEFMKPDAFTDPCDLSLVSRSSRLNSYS

B1: Relaxin-3/Relaxin-1 (R3/R1) chimeric polypeptide (ligand, human)
chain 1: RAAPYGVRLCGREFIRAVIFTCGGSRW
chain 2: RPYVALFEKCCLIGCTKRSLAKYC
modifications: disulfide (positions not given here)
notes: domain: A-chain; Two chains joined by disulfide bonds; Made in COS-7 cells with furin, FLAG tag removed with enterokinase
B2: synthetic human relaxin-3 B-chain (peptide)
peptide: RAAPYGVRLCGREFIRAVIFTCGGSRW
B3: Relaxin-3/INSL4 (R3/I4) chimeric polypeptide (ligand, human)
chain 1: RAAPYGVRLCGREFIRAVIFTCGGSRW
chain 2: FDPFCCEVICDDGTSVKLC
modifications: disulfide (positions not given here)
notes: domain: A-chain; Two chains joined by disulfide bonds; FLAG tag removed
B4: Relaxin-3/INSL6 (R3/I6) chimeric polypeptide (ligand, human)
chain 1: RAAPYGVRLCGREFIRAVIFTCGGSRW
chain 2: GYSEKCCLTGCTKEELSIAC
modifications: disulfide (positions not given here)
notes: as for B3
B5: Relaxin-3/INSL5 (R3/I5) chimeric polypeptide (ligand)
chain 1: RAAPYGVRLCGREFIRAVIFTCGGSRW
chain 2: DLQTLCCTDGCSMTDLSALC
modifications: disulfide (positions not given here); also: two chains joined by disulfide bonds, places not given here
notes: Two chains joined by disulfide bonds; FLAG tag removed with enterokinase; also called R3/I5 chimera; I5/R3
B6: Relaxin-3/Relaxin-2 (R3/R2) chimeric polypeptide (ligand, human)
chain 1: RAAPYGVRLCGREFIRAVIFTCGGSRW
chain 2: QLYSALANKCCHVGCTKRSLARFC
modifications: disulfide (positions not given here); also: two chains joined by disulfide bonds, pairing not given here
notes: as for B3
B7: human relaxin-3 (ligand)
chain 1: RAAPYGVRLCGREFIRAVIFTCGGSRW
chain 2: DVLAGLSSSCCKWGCSKSEISSLC
modifications: ends and bridges not checked; also: also used as 125I-labelled tracer
notes: domain: A-chain; Mature two-chain hormone; also called R3; INSL7
B8: human INSL3 (ligand)
chain 1: PTPEMREKLCGHHFVRALVRVCGGPRWSTEA
chain 2: AAATNPARYCCLSGCTQQDLLTLCPY
modifications: ends and bridges not checked; also: also used as 125I-labelled tracer
B9: Relaxin-3/INSL3 (R3/I3) chimeric polypeptide (ligand, human)
chain 1: RAAPYGVRLCGREFIRAVIFTCGGSRW
chain 2: NPARYCCLSGCTQQDLLTLC
modifications: disulfide (positions not given here)
notes: as for B3

Columns and labels:
human GPCR135 [1] = biological target: T1, human GPCR135; assay: cell-based or functional assay
human LGR7 [2] = biological target: T2, human LGR7; assay: cell-based or functional assay
human LGR8 [3] = biological target: T4, human LGR8 (human, UniProt Q8WXD0 1-754); assay: cell-based or functional assay
T4 sequence (Q8WXD0 whole entry): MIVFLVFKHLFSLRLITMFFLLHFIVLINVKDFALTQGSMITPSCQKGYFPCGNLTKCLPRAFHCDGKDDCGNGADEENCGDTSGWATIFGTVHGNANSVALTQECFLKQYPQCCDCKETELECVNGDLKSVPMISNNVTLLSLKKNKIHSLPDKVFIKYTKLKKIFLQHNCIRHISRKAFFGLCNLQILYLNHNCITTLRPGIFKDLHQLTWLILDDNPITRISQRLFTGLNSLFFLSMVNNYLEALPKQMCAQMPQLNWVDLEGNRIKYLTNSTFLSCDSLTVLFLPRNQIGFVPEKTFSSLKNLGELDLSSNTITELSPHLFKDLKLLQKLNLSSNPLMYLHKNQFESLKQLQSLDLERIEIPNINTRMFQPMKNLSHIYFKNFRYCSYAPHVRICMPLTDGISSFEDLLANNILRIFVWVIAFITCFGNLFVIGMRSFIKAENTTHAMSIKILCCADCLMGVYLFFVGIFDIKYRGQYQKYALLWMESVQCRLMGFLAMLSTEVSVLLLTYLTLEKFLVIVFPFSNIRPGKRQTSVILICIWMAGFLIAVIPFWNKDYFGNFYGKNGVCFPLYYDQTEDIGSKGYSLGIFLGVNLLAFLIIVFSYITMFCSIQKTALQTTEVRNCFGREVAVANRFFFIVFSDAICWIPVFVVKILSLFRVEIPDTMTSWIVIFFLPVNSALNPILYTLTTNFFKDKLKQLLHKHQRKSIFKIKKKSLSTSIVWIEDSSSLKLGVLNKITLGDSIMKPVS

human LGR8 [4] = biological target: T4, human LGR8; assay: competition with 100 pM [125I]-INSL3, live COS-7 cells with human LGR8
human LGR7 [5] = biological target: T2, human LGR7; assay: competition with 100 pM [125I]-relaxin-3, live COS-7 cells with human LGR7
human GPCR135 [6] = biological target: T1, human GPCR135; assay: competition with 100 pM [125I]-relaxin-3, COS-7 membranes with human GPCR135
human GPCR142 [7] = biological target: T5, human GPCR142 (human, UniProt Q8TDU9 1-374); assay: competition with 100 pM [125I]-relaxin-3, COS-7 membranes with human GPCR142
T5 sequence (Q8TDU9 whole entry L329S, form in doubt): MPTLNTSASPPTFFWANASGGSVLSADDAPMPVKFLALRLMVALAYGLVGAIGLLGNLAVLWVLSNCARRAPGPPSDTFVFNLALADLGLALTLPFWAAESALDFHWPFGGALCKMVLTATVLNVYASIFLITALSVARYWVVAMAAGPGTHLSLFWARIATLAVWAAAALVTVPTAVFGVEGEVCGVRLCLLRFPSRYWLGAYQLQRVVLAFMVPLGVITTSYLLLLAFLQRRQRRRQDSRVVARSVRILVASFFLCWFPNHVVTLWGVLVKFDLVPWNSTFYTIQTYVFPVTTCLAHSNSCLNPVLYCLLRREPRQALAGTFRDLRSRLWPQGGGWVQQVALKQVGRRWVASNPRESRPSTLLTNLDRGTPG

human GPCR135 [8] = biological target: T1, human GPCR135; assay: cell-based or functional assay; remark: listed apart in the source
human GPCR142 [9] = biological target: T5, human GPCR142; assay: cell-based or functional assay
human GPCR142 [10] = biological target: T5, human GPCR142; assay: cell-based or functional assay; remark: listed apart in the source
human LGR8 [11] = biological target: T4, human LGR8; assay: competition with 100 pM [125I]-INSL3, live COS-7 cells expressing human LGR8; ND denotes no activity was detected
human LGR7 [12] = biological target: T2, human LGR7; assay: competition with 100 pM [125I]-relaxin-3, live COS-7 cells expressing human LGR7; ND denotes no activity was detected
human LGR7 [13] = biological target: T2, human LGR7; assay: radioligand competition, human LGR7 (Table 1 prints 12.9)
human LGR7 [14] = biological target: T2, human LGR7; assay: radioligand competition, human LGR7 (Table 1 prints 724 nM)
human GPCR135 [15] = biological target: T1, human GPCR135; assay: discussion of the radioligand binding results of Examples 3-5
human LGR7 [16] = biological target: T2, human LGR7; assay: as above
rat GPCR135 [17] = biological target: T6, rat GPCR135 (rat, UniProt Q5Y987 29-469); assay: competition with 100 pM [125I] human R3, COS-7 membranes with rat GPCR135
T6 construct: whole, on cells; also called rat recombinant GPCR135

rat LGR7 = biological target: T3, rat LGR7; assay: competition with 100 pM [125I] human relaxin-2, COS-7 membranes with rat LGR7
rat GPCR135 [18] = biological target: T6, rat GPCR135; assay: ratio of IC50 values from radioligand competition on rat GPCR135 and rat LGR7
human LGR7 [19] = biological target: T2, human LGR7; assay: cell-based or functional assay; remark: listed apart in the source
rat GPCR135 [20] = biological target: T6, rat GPCR135; assay: quantitative receptor autoradiography, displacement of 7 pM [125I]R3/I5 from rat brain sections; cortex; unit from paragraph 235
rat GPCR135 [21] = biological target: T6, rat GPCR135; assay: quantitative receptor autoradiography, displacement of 7 pM [125I]R3/I5 from rat brain sections; olfactory bulb; unit from paragraph 235
rat GPCR135 [22] = biological target: T6, rat GPCR135; assay: quantitative receptor autoradiography, displacement of 7 pM [125I]R3/I5 from rat brain sections; superior colliculus; unit from paragraph 235
human LGR8 [23] = biological target: T4, human LGR8; assay: cell-based or functional assay; remark: listed apart in the source
human LGR8 [24] = biological target: T4, human LGR8; assay: radioligand competition with [125I]-INSL3, human LGR8; lower end tied to R3/I3 by Table 1

Row | Binder | EC50, inhibition of forskolin stimulated β-galactosidase expression (human GPCR135 [1]) | EC50, ligand stimulated β-galactosidase expression (human LGR7 [2]) | EC50, ligand stimulated β-galactosidase expression (human LGR8 [3]) | IC50 (human LGR8 [4]) | IC50 (human LGR7 [5]) | IC50 (human GPCR135 [6]) | IC50 (human GPCR142 [7]) | EC50, inhibition of forskolin stimulated β-galactosidase expression (human GPCR142 [10]) | binding result (human LGR8 [11]) | other results
1 | B1 | 1.8 nM | 4.5 nM | > 1000 nM | > 1000 nM | 5.1 nM | 2.9 nM | 2.6 nM | – | – | –
2 | B2 | – | – | – | – | – | – | – | – | – | inhibition of forskolin-stimulated β-galactosidase activity in SK-N-MC/β-gal cells, EC50 (human GPCR135 [8]): 88 nM; inhibition of forskolin-stimulated β-galactosidase activity in SK-N-MC/β-gal cells, EC50 (human GPCR142 [9]): 125 nM
3 | B3 | > 1000 nM | – | – | – | – | > 1000 nM | > 1000 nM | > 1000 nM | no binding | binding result (human LGR7 [12]): no binding (tested: 1 µM)
4 | B4 | 8.4 nM | 13.7 nM | – | – | 12.9 nM | 9.5 nM | 11.3 nM | 11.2 nM | no binding | IC50 (human LGR7 [13]): 15 nM
5 | B5 | 0.45 nM | 412 nM | – | – | 724 nM | 0.68 nM | 1.4 nM | 0.91 nM | no binding | IC50 (human LGR7 [14]): ~500 nM; Kd (human GPCR135 [15]): ~0.5 nM; Kd (human LGR7 [16]): ~500 nM; IC50 (rat GPCR135 [17]): 0.5 nM; IC50 (rat LGR7): > 400 nM; fold selective over rat LGR7 (rat GPCR135 [18]): 800 fold
6 | B6 | 1.1 nM | 1.1 nM | 575 nM | 615 nM | 1.5 nM | 1.2 nM | 1.8 nM | 1.4 nM | – | –
7 | B7 | – | – | – | – | – | – | – | – | – | stimulation of β-galactosidase activity in SK-N-MC/β-gal cells, EC50 (human LGR7 [19]): 1.4 nM; IC50 (rat GPCR135 [20]): 0.4 nM; IC50 (rat GPCR135 [21]): 0.3 nM; IC50 (rat GPCR135 [22]): 0.3 nM
8 | B8 | – | – | – | – | – | – | – | – | – | induction of β-galactosidase activity in SK-N-MC/β-gal cells, EC50 (human LGR8 [23]): 0.16 nM
9 | B9 | – | 2.5 nM | 258 nM | 475 nM | 2.3 nM | – | 3.5 nM | 2.9 nM | – | IC50 (human LGR8 [24]): 500 nM
